Experimental data reported in patent US20230147657A1 (INSERM INSTITUT NATIONAL DE LA SANT ET DE LA RECHERCHE M …, published 2023).
Where two headings read alike, the source gives them in different places. Values belong to the molecule of their own block, whether it stands above or below them.

How the values were obtained:
[1] = molecular target: T1, human CD45RC (human, UniProt P08575 26-1306); assay: flow cytometry, EDTA whole blood, one of three healthy volunteers; very few events [2]
T1 construct: Native protein on human blood leukocytes / PBMC / T cells of healthy volunteers; also called hCD45RC
T1 sequence: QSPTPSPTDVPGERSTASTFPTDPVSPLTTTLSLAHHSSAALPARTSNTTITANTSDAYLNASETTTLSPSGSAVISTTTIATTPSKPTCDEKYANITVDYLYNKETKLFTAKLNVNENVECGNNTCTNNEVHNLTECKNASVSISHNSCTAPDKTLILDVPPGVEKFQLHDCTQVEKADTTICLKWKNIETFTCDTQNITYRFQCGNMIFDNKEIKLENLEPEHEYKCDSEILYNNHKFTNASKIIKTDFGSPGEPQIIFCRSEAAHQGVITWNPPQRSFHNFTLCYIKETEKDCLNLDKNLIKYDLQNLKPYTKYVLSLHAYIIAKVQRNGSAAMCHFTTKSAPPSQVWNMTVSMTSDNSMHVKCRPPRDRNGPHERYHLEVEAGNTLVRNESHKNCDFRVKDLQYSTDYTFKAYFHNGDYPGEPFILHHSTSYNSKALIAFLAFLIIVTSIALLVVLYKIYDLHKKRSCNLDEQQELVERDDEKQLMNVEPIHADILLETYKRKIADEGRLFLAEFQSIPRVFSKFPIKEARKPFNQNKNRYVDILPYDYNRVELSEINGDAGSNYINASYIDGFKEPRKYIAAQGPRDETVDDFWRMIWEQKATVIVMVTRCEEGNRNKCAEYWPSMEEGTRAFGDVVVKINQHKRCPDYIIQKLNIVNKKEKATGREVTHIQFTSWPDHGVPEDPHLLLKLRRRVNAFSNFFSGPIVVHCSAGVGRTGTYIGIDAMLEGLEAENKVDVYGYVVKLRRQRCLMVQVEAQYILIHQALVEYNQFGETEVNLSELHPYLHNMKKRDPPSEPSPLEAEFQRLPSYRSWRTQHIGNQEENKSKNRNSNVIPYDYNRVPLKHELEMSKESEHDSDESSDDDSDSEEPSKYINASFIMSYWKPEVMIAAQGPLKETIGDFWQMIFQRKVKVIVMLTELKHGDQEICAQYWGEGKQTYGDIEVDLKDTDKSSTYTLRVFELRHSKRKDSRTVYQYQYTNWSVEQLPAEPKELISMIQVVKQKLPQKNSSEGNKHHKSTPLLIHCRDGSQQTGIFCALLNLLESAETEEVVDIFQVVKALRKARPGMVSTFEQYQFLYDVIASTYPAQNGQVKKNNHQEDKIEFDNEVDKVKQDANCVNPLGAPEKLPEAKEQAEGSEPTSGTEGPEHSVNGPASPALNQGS

[2] = molecular target: T1, human CD45RC; assay: flow cytometry, EDTA whole blood, one of three healthy volunteers [2]
[3] = molecular target: T1, human CD45RC; assay: flow cytometry, EDTA whole blood, one of three healthy volunteers [3]
[4] = molecular target: T1, human CD45RC; assay: flow cytometry, EDTA whole blood, one of three healthy volunteers [1]
[5] = molecular target: T1, human CD45RC; assay: flow cytometry on T cells of human PBMC; biotin anti-human IgG + streptavidin PerCP-Cy5.5
[6] = molecular target: T1, human CD45RC; assay: as above; remark: listed apart in the source

B1: Anti-45RC Variant A (antibody, human IgG1, kappa, V domains shown)
VH: QVQLVQSGAEVKKPGASVKVSCKASGYTFTNYYIGWVRQAPGQGLEWIGDIFPGGDYANSNEKFKGRVTLTADTSISTAYMELSRLRSDDTVVYYCVRRNFDYWGQGTLVTVSS
VL: DIQLTQSPSFLSASVGDRVTITCSASSSVSYMHWFQQKPGKAPKLWIYNTSNLPSGVPSRFSGSGSGTEYTLTISSLQPEDFATYYCQQRSSYPLTFGGGTKVEIKR
notes: also called humanized ABIS-45RC variant A
% of T cells in the CD45RC gate at 1 µg/mL [5]: 58.2%
% of T cells in the CD45RC gate at 2 µg/mL [5]: 60.2%

B2: Anti-45RC Variant C (antibody, human IgG1, kappa, V domains shown)
VH: B1 VH
VL: EIVLTQSPATLSLSPGERATLSCSASSSVSYMHWFQQKPGQAPRLWIYNTSNLPSGIPARFSGSGSGTDYTLTISSLEPEDFAVYYCQQRSSYPLTFGGGTKVEIKR
notes: also called humanized ABIS-45RC variant C
% of T cells in the CD45RC gate at 1 µg/mL [5]: 63.3%
% of T cells in the CD45RC gate at 2 µg/mL [5]: 63.7%

B4: Anti-45RC Variant B (antibody, human IgG1, kappa, V domains shown)
VH: B1 VH
VL: EIVLTQSPDFQSVTPKEKVTITCSASSSVSYMHWFQQKPDQSPKLWIYNTSNLPSGVPSRFSGSGSGTDYTLTINSLEAEDAATYYCQQRSSYPLTFGGGTKVEIKR
notes: also called humanized ABIS-45RC variant B
% of T cells in the CD45RC gate at 1 µg/mL [5]: 43.9%
% of T cells in the CD45RC gate at 2 µg/mL [5]: 32.7%

More lines, now with the values ahead:

% of ILC3 in the CD45RC high gate (top) [1]: 50%
% of ILC3 in the CD45RC intermediate/low gate (middle) [1]: 50%
% of ILC3 in the CD45RC negative gate (bottom) [1]: 0%
% of ILC1 in the CD45RC high gate (top) [2]: 9.3%
% of ILC1 in the CD45RC intermediate/low gate (middle) [2]: 27.5%
% of ILC1 in the CD45RC negative gate (bottom) [2]: 63.2%
% of ILC2 in the CD45RC high gate (top) [2]: 45%
% of ILC2 in the CD45RC intermediate/low gate (middle) [2]: 49.5%
% of ILC2 in the CD45RC negative gate (bottom) [2]: 5.5%
% of MAIT cells in the CD45RC high gate (top) [2]: 5.89%
% of MAIT cells in the CD45RC intermediate/low gate (middle) [2]: 71%
% of MAIT cells in the CD45RC negative gate (bottom) [2]: 23.2%
% of NKT cells in the CD45RC high gate (top) [2]: 34.4%
% of NKT cells in the CD45RC intermediate/low gate (middle) [2]: 54.2%
% of NKT cells in the CD45RC negative gate (bottom) [2]: 11.4%
% of iNKT cells in the CD45RC high gate (top) [2]: 24.1%
% of iNKT cells in the CD45RC intermediate/low gate (middle) [2]: 61.6%
% of iNKT cells in the CD45RC negative gate (bottom) [2]: 14.3%
% of monocytes CD14+ in the CD45RC high gate (top) [2]: 0.43%
% of monocytes CD14+ in the CD45RC intermediate/low gate (middle) [2]: 43.9%
% of monocytes CD14+ in the CD45RC negative gate (bottom) [2]: 55.6%
% of monocytes CD14highCD16- in the CD45RC high gate (top) [2]: 0.091%
% of monocytes CD14highCD16- in the CD45RC intermediate/low gate (middle) [2]: 38.3%
% of monocytes CD14highCD16- in the CD45RC negative gate (bottom) [2]: 61.6%
% of basophils in the CD45RC high gate (top) [3]: 0%
% of basophils in the CD45RC intermediate/low gate (middle) [3]: 7.3%
% of basophils in the CD45RC negative gate (bottom) [3]: 92.7%
% of eosinophils in the CD45RC high gate (top) [3]: 0.47%
% of eosinophils in the CD45RC intermediate/low gate (middle) [3]: 90.5%
% of eosinophils in the CD45RC negative gate (bottom) [3]: 9.08%
% of mDC in the CD45RC high gate (top) [3]: 0%
% of mDC in the CD45RC intermediate/low gate (middle) [3]: 14.3%
% of mDC in the CD45RC negative gate (bottom) [3]: 85.7%
% of monocytes CD14intCD16+ in the CD45RC high gate (top) [3]: 6.45%
% of monocytes CD14intCD16+ in the CD45RC intermediate/low gate (middle) [3]: 87.7%
% of monocytes CD14intCD16+ in the CD45RC negative gate (bottom) [3]: 5.87%
% of neutrophils in the CD45RC high gate (top) [3]: 0.014%
% of neutrophils in the CD45RC intermediate/low gate (middle) [3]: 19.3%
% of neutrophils in the CD45RC negative gate (bottom) [3]: 80.7%
% of pDC in the CD45RC high gate (top) [3]: 1.84%
% of pDC in the CD45RC intermediate/low gate (middle) [3]: 97.9%
% of pDC in the CD45RC negative gate (bottom) [3]: 0.23%
% of B cells in the CD45RC high gate (top) [4]: 79.9%
% of B cells in the CD45RC intermediate/low gate (middle) [4]: 20.1%
% of B cells in the CD45RC negative gate (bottom) [4]: 0%
% of CD3+ TCRab cells in the CD45RC high gate (top) [4]: 8.34%
% of CD3+ TCRab cells in the CD45RC intermediate/low gate (middle) [4]: 46.2%
% of CD3+ TCRab cells in the CD45RC negative gate (bottom) [4]: 45.5%
% of CD3+ TCRgd cells in the CD45RC high gate (top) [4]: 1.93%
% of CD3+ TCRgd cells in the CD45RC intermediate/low gate (middle) [4]: 90.6%
% of CD3+ TCRgd cells in the CD45RC negative gate (bottom) [4]: 7.46%
% of CD4+ T cells in the CD45RC high gate (top) [4]: 3.64%
% of CD4+ T cells in the CD45RC intermediate/low gate (middle) [4]: 47.2%
% of CD4+ T cells in the CD45RC negative gate (bottom) [4]: 49.2%
% of CD4+ Treg (CD25+CD127-) in the CD45RC high gate (top) [4]: 3.52%
% of CD4+ Treg (CD25+CD127-) in the CD45RC intermediate/low gate (middle) [4]: 19.8%
% of CD4+ Treg (CD25+CD127-) in the CD45RC negative gate (bottom) [4]: 76.7%
% of CD8+ T cells in the CD45RC high gate (top) [4]: 38.8%
% of CD8+ T cells in the CD45RC intermediate/low gate (middle) [4]: 39.7%
% of CD8+ T cells in the CD45RC negative gate (bottom) [4]: 21.5%
% of NK cells in the CD45RC high gate (top) [4]: 28.6%
% of NK cells in the CD45RC intermediate/low gate (middle) [4]: 70.4%
% of NK cells in the CD45RC negative gate (bottom) [4]: 1%
% of T cells in the CD45RC high gate (top) [4]: 7.43%
% of T cells in the CD45RC intermediate/low gate (middle) [4]: 49.7%
% of T cells in the CD45RC negative gate (bottom) [4]: 42.9%
Molecule: MT2 (murine anti-hCD45RC antibody, commercially available)

% of T cells in the CD45RC gate at 1 µg/mL [6]: 49.7%
% of T cells in the CD45RC gate at 2 µg/mL [6]: 48.9%
B3: Anti-45RC Variant I (antibody, human IgG1, kappa, V domains shown)
VH: QVQLVESGGGLVKPGGSLRLSCAASGYTFTNYYIGWIRQAPGKGLEWIGDIFPGGDYANSNEKVKGRFTLSADTAKNSAYLQMNSLRAEDTAVYYCVRRNFDYWGQGTLVTVSS
VL: B1 VL
notes: also called humanized ABIS-45RC variant I
